Target: Mouse Fc (mFc) tagged mink ACE2 (mink (Neovison vison))
Assay: SPR

**Q.** For “SARS-CoV-2 WT RBD (from UniProt P0DTC2 319-541) (domain or fragment)”, which Kd is on record?
**A.** The Kd was 8.16 µM.

Reference: paper PMC8528823
